# Test results: article PMC6566870
# Like-named read-outs stand apart in the source and are kept apart here.
# Columns and labels:
# [1] = target: N-terminally His6-tagged cMyc-tagged human CCR1 (human) (UniProt P32246); experiment: radioligand binding; competitive displacement of 50 pM 125I-CCL3 from membranes of Flp-In T-REx 293 cells expressing CCR1; 2 h at 37 °C; two sets of experiments (Table 1, Table 3)
# [2] = target: N-terminally His6-tagged cMyc-tagged human CCR1 (human) (UniProt P32246)
# [3] = target: N-terminally His6-tagged cMyc-tagged human CCR1 (human) (UniProt P32246); remark: listed apart in the source
# [4] = target: N-terminally His6-tagged cMyc-tagged human CCR1 (human) (UniProt P32246); experiment: radioligand binding; competitive displacement of 50 pM 125I-CCL3 from membranes of Flp-In T-REx 293 cells expressing CCR1; 2 h at 37 °C; two sets of experiments (Table 1, Table 3); remark: listed apart in the source
# [5] = target: N-terminally His6-tagged cMyc-tagged human CCR1 (human) (UniProt P32246); remark: listed apart in the source
# [6] = target: N-terminally His6-tagged cMyc-tagged human CCR1 (human) (UniProt P32246); remark: listed apart in the source
# Chain of N-terminally His6-tagged cMyc-tagged human CCR1 (human) (P32246 whole entry): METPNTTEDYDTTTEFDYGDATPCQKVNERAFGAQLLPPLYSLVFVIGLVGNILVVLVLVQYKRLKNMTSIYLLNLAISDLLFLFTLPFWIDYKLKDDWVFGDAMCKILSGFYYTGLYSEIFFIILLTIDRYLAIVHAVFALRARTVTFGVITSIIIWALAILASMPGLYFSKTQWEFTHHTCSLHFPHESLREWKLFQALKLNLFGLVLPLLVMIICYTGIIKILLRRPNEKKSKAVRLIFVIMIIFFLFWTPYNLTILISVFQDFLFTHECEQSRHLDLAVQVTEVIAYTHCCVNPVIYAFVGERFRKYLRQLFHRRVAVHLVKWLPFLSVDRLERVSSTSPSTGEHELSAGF
IC50 [1],pIC50 [1],"ERK1/2 phosphorylation, EC50 [2]","ERK1/2 phosphorylation, Emax [2]","ERK1/2 phosphorylation, pEC50 [2]","Gαi1 activation (BRET), EC50 [2]","Gαi1 activation (BRET), Emax [2]","Gαi1 activation (BRET), pEC50 [2]","Gαi2 activation (BRET), EC50 [2]","Gαi2 activation (BRET), Emax [2]","Gαi2 activation (BRET), pEC50 [2]","inhibition of forskolin-induced cAMP production, EC50 [2]","inhibition of forskolin-induced cAMP production, Emax [2]","inhibition of forskolin-induced cAMP production, pEC50 [2]","transduction coefficient Log(τ/KA), GPA αi1 [3]","transduction coefficient Log(τ/KA), GPA αi2 [3]","transduction coefficient Log(τ/KA), cAMP [3]","transduction coefficient Log(τ/KA), pERK [3]",Substance,also measured
0.54 nM,9.3 -log M,1.3 nM,28.2%,8.9 -log M,0.7 nM,91.2%,9.2 -log M,1.5 nM,124%,8.8 -log M,0.2 nM,35.5%,9.7 -log M,9,8.5,9.1,8.8,CCL15(N-CCL7) (ligand),–
0.028 nM,10.6 -log M,–,–,–,–,–,–,1.2 nM,114%,8.9 -log M,–,–,–,–,8.3,–,–,CCL15(Δ26) (ligand),"IC50 [4]: 0.093 nM; pIC50 [4]: 10.1 -log M; transduction coefficient Log(τ/KA), GPA αi1 [5]: 8.6; transduction coefficient Log(τ/KA), cAMP [5]: 8.1; transduction coefficient Log(τ/KA), pERK [5]: 8.4; inhibition of forskolin-induced cAMP production, EC50 (Table 3) [2]: 2.7 nM; transduction coefficient Log(τ/KA), GPA αi1 (second set of experiments) [3]: 8.7; transduction coefficient Log(τ/KA), cAMP (second set of experiments) [3]: 8.4; transduction coefficient Log(τ/KA), pERK (second set of experiments) [3]: 8.7; ERK1/2 phosphorylation, EC50 [6]: 2.3 nM; ERK1/2 phosphorylation, Emax [6]: 25.4%; ERK1/2 phosphorylation, pEC50 [6]: 8.6 -log M; G protein activation (Gαi1, BRET), EC50 [6]: 1 nM; G protein activation (Gαi1, BRET), Emax [6]: 111%; G protein activation (Gαi1, BRET), pEC50 [6]: 9 -log M; inhibition of forskolin-induced cAMP production, EC50 [6]: 2.8 nM; inhibition of forskolin-induced cAMP production, Emax [6]: 28.7%; inhibition of forskolin-induced cAMP production, pEC50 [6]: 8.6 -log M"
0.074 nM,10.1 -log M,2.1 nM,28.3%,8.7 -log M,2.3 nM,86.2%,8.6 -log M,1.3 nM,140%,8.9 -log M,0.4 nM,35.7%,9.4 -log M,8.4,8.6,8.9,8.6,CCL15(Δ28) (ligand),–
